Data published in patent US20260242419A1, “A CYCLIC PEPTIDE FOR TRAPPING INTERLEUKIN-1 BETA” (Merck Sharp & Dohme LLC, priority 2023, published 2026).
Starred links: 1 amine or outer side, 2 acyl side, 3 side chain; linkers in the order of their positions; H or OH if unused. Non-standard residues stand in square brackets, D forms with d. Primed or numbered codes have the meaning given here. AEFBz4Piperaz = (S)-2-amino-3-(4-(2-(4-(piperazin-1-yl)benzamido)ethoxy)phenyl)propanoic acid, O=C(NCCOc1ccc(C[C@H](N[*:1])C(=O)[*:2])cc1)c1ccc(N2CCN([*:3])CC2)cc1; AEF4AcPip4c = (S)-3-(4-(2-(1-acetylpiperidine-4-carboxamido)ethoxy)phenyl)-2-aminopropanoic acid, CC(=O)N1CCC(C(=O)NCCOc2ccc(C[C@H](N[*:1])C(=O)[*:2])cc2)CC1; AEF2PyrimCO = (S)-2-amino-3-(4-(2-(pyrimidine-2-carboxamido)ethoxy)phenyl)propanoic acid, O=C(NCCOc1ccc(C[C@H](N[*:1])C(=O)[*:2])cc1)c1ncccn1; AEF4PyrimCO = (S)-2-amino-3-(4-(2-(pyrimidine-4-carboxamido)ethoxy)phenyl)propanoic acid, O=C(NCCOc1ccc(C[C@H](N[*:1])C(=O)[*:2])cc1)c1ccncn1; AEFPyrzCO = (S)-2-amino-3-(4-(2-(pyrazine-2-carboxamido)ethoxy)phenyl)propanoic acid, O=C(NCCOc1ccc(C[C@H](N[*:1])C(=O)[*:2])cc1)c1cnccn1; AEFcHex = (S)-2-amino-3-(4-(2-(cyclohexanecarboxamido)ethoxy)phenyl)propanoic acid, O=C(NCCOc1ccc(C[C@H](N[*:1])C(=O)[*:2])cc1)C1CCCCC1; AEF4PyrCO = (S)-2-amino-3-(4-(2-(isonicotinamido)ethoxy)phenyl)propanoic acid, O=C(NCCOc1ccc(C[C@H](N[*:1])C(=O)[*:2])cc1)c1ccncc1; AEFPiv = (S)-2-amino-3-(4-(2-pivalamidoethoxy)phenyl)propanoic acid, CC(C)(C)C(=O)NCCOc1ccc(C[C@H](N[*:1])C(=O)[*:2])cc1; AEFBz = (S)-2-amino-3-(4-(2-benzamidoethoxy)phenyl)propanoic acid, O=C(NCCOc1ccc(C[C@H](N[*:1])C(=O)[*:2])cc1)c1ccccc1; TyrEtNAc = (2S)-3-[4-(2-acetamidoethoxy)phenyl]-2-amino-propanoic acid, CC(=O)NCCOc1ccc(C[C@H](N[*:1])C(=O)[*:2])cc1; Bip4CONMe2″ = 4'-(dimethylcarbamoyl)biphenylalanine, CN(C)C(=O)c1ccc(-c2ccc(C[C@H](N[*:1])C(=O)[*:2])cc2)cc1; OrnMe3 = ornithine with side-chain trimethylammonium, C[N+](C)(C)CCC[C@H](N[*:1])C(=O)[*:2]; 4PyrimAla″ = 3-(pyrimidin-4-yl)alanine, O=C([C@H](Cc1ccncn1)N[*:1])[*:2]; dPro(4R-(4-pyridylmethyl)) = O=C(O)[C@H]1C[C@@H](Cc2ccncc2)CN1; Trp(βS-Me,4-F) = C[C@@H](c1c[nH]c2cccc(F)c12)[C@H](N)C(=O)O; Bip(4'-CONH2) = NC(=O)c1ccc(-c2ccc(C[C@H](N)C(=O)O)cc2)cc1; Bip(4'-COOH) = N[C@@H](Cc1ccc(-c2ccc(C(=O)O)cc2)cc1)C(=O)O; dPro(4R-Bzl(4-F)) = O=C(O)[C@H]1C[C@@H](Cc2ccc(F)cc2)CN1; dPro(3S-(4-F-Bn)) = O=C(O)[C@@H]1NCC[C@@H]1Cc1ccc(F)cc1; Ala(pyrimidin-5-yl) = N[C@@H](Cc1cncnc1)C(=O)O; Phe(4-COOH) = N[C@@H](Cc1ccc(C(=O)O)cc1)C(=O)O; Phe(4-tBu) = CC(C)(C)c1ccc(C[C@H](N)C(=O)O)cc1; Bip = N[C@@H](Cc1ccc(-c2ccccc2)cc1)C(=O)O; Lys(Me3) = C[N+](C)(C)CCCC[C@H](N)C(=O)O; Phe(3-Cl) = N[C@@H](Cc1cccc(Cl)c1)C(=O)O; Phe(4-Br) = N[C@@H](Cc1ccc(Br)cc1)C(=O)O; Pro(cis-4-F) = O=C(O)[C@@H]1C[C@H](F)CN1; Ala(4-THP) = N[C@@H](CC1CCOCC1)C(=O)O; d(αMeD) = C[C@@](N)(CC(=O)O)C(=O)O; 4Pal = N[C@@H](Cc1ccncc1)C(=O)O; Dab = NCC[C@H](N)C(=O)O; Aib = CC(C)(N)C(=O)O

These binders were tested against Recombinant human IL-1β (BioLegend 579404) (human, UniProt P01584 117-269) (assay: cell-based or functional assay).

Binder	MRC5 IC50
cyclo([AEF4AcPip4c][4Pal][Phe(4-COOH)]G[Pro(cis-4-F)][Trp(βS-Me,4-F)][Aib]SW[Aib][Ala(pyrimidin-5-yl)]Q[Dab]G[dPro(4R-(4-pyridylmethyl))]) (ring closure inferred; not fully specified (N-terminus); printed as cyclic, AEF4AcPip4c-4Pal-Phe4COOH-G-Proc4F-SbMeW4F-Aib-S-W-Aib-PyrimAla-Q-Dab-G-dProc4CH24Pal) [SEQ ID NO 302]	0.017 nM
cyclo([AEFPiv][4Pal][Phe(4-COOH)]G[Pro(cis-4-F)][Trp(βS-Me,4-F)][Aib]SW[Aib][Ala(pyrimidin-5-yl)]Q[Dab]G[dPro(4R-(4-pyridylmethyl))]) (ring closure inferred; not fully specified (N-terminus)) [SEQ ID NO 300]	0.013 nM
cyclo([Phe(4-Br)][4Pal][Phe(4-COOH)]G[Pro(cis-4-F)][Trp(βS-Me,4-F)][Aib]SW[d(αMeD)][Ala(pyrimidin-5-yl)]Q[Dab]G[dPro(3S-(4-F-Bn))]) (ring closure inferred; not fully specified (N-terminus); printed as cyclic, Phe4Br-4Pal-Phe4COOH-G-Proc4F-SbMeW4F-Aib-S-W-daMeD-PyrimAla-Q-Dab-G-dProc3Bn4F) [SEQ ID NO 299]	0.012 nM
cyclo([Bip(4'-COOH)][4Pal][Phe(4-COOH)]G[Pro(cis-4-F)][Trp(βS-Me,4-F)][Aib]SW[Aib][OrnMe3]Q[Dab]G[dPro(4R-Bzl(4-F))]) (ring closure inferred; not fully specified (N-terminus); printed as cyclic, Bip4CO2H-4Pal-Phe4COOH-G-Proc4F-sbMeW4F-Aib-S-W-Aib-OrnMe3-Q-Dab-G-dProc4Bn4F) [SEQ ID NO 297]	0.022 nM
cyclo([Bip(4'-COOH)][4Pal][Phe(4-COOH)]G[Pro(cis-4-F)][Trp(βS-Me,4-F)][Aib]SW[Aib][Lys(Me3)]Q[Dab]G[dPro(4R-Bzl(4-F))]) (ring closure inferred; not fully specified (N-terminus); printed as cyclic, Bip4CO2H-4Pal-Phe4COOH-G-Proc4F-sbMeW4F-Aib-S-W-Aib-LysMe3-Q-Dab-G-dProc4Bn4F) [SEQ ID NO 298]	0.015 nM
cyclo([Bip4CONMe2″][4Pal][Phe(4-COOH)]G[Pro(cis-4-F)][Trp(βS-Me,4-F)][Aib]SW[d(αMeD)][Ala(4-THP)]Q[Dab]G[dPro(4R-(4-pyridylmethyl))]) (ring closure inferred; not fully specified (N-terminus); printed as cyclic, Bip4CONMe2-4Pal-Phe4COOH-G-Proc4F-SbMeW4F-Aib-S-W-daMeD-AlaTHP4-Q-Dab-G-dProc4CH24Pal) [SEQ ID NO 295]	0.012 nM
cyclo([AEFcHex][4Pal][Phe(4-COOH)]G[Pro(cis-4-F)][Trp(βS-Me,4-F)][Aib]SW[Aib][Ala(pyrimidin-5-yl)]Q[Dab]G[dPro(4R-(4-pyridylmethyl))]) (ring closure inferred; not fully specified (N-terminus)) [SEQ ID NO 301]	0.017 nM
cyclo([Bip(4'-CONH2)][4Pal][Phe(4-COOH)]G[Pro(cis-4-F)][Trp(βS-Me,4-F)][Aib]SW[d(αMeD)][Ala(4-THP)]Q[Dab]G[dPro(4R-(4-pyridylmethyl))]) (ring closure inferred; not fully specified (N-terminus); printed as cyclic, Bip4CONH2-4Pal-Phe4COOH-G-Proc4F-SbMeW4F-Aib-S-W-daMeD-AlaTHP4-Q-Dab-G-dProc4CH24Pal) [SEQ ID NO 296]	0.013 nM
cyclo([Bip][4Pal][Phe(4-COOH)]G[Pro(cis-4-F)][Trp(βS-Me,4-F)][Aib]SW[d(αMeD)][Ala(4-THP)]Q[Dab]G[dPro(4R-(4-pyridylmethyl))]) (ring closure inferred; not fully specified (N-terminus); printed as cyclic, Bip-4Pal-Phe4COOH-G-Proc4F-SbMeW4F-Aib-S-W-daMeD-AlaTHP4-Q-Dab-G-dProc4CH24Pal) [SEQ ID NO 294]	0.014 nM

The next lines start with the values.

MRC5 IC50	Binder
0.02 nM	cyclo([AEFBz4Piperaz][4Pal][Phe(4-COOH)]G[Pro(cis-4-F)][Trp(βS-Me,4-F)][Aib]SW[Aib][Ala(pyrimidin-5-yl)]Q[Dab]G[dPro(4R-(4-pyridylmethyl))]) (ring closure inferred; not fully specified (N-terminus); printed as cyclic, AEFBz4Piperaz-4Pal-Phe4COOH-G-Proc4F-SbMeW4F-Aib-S-W-Aib-PyrimAla-Q-Dab-G-dProc4CH24Pal) [SEQ ID NO 306]
0.016 nM	cyclo([AEF4PyrimCO][4Pal][Phe(4-COOH)]G[Pro(cis-4-F)][Trp(βS-Me,4-F)][Aib]SW[Aib][Ala(pyrimidin-5-yl)]Q[Dab]G[dPro(4R-(4-pyridylmethyl))]) (ring closure inferred; not fully specified (N-terminus); printed as cyclic, AEF4PyrimCO-4Pal-Phe4COOH-G-Proc4F-SbMeW4F-Aib-S-W-Aib-PyrimAla-Q-Dab-G-dProc4CH24Pal) [SEQ ID NO 305]
0.017 nM	cyclo([TyrEtNAc][4Pal][Phe(4-COOH)]G[Pro(cis-4-F)][Trp(βS-Me,4-F)][Aib]EW[Aib]YQ[Dab]G[dPro(4R-(4-pyridylmethyl))]) (ring closure inferred; not fully specified (N-terminus)) [SEQ ID NO 310]
0.017 nM	cyclo([Bip(4'-COOH)][4Pal][Phe(4-COOH)]G[Pro(cis-4-F)][Trp(βS-Me,4-F)][Aib]EW[Aib][4PyrimAla″]Q[Dab]G[dPro(3S-(4-F-Bn))]) (ring closure inferred; not fully specified (N-terminus); printed as cyclic, Bip4CO2H-4Pal-Phe4COOH-G-Proc4F-SbMeW4F-Aib-E-W-Aib-4PyrimAla-Q-Dab-G-dProc3Bn4F) [SEQ ID NO 312]
0.014 nM	cyclo([AEF2PyrimCO][4Pal][Phe(4-COOH)]G[Pro(cis-4-F)][Trp(βS-Me,4-F)][Aib]SW[Aib][Ala(pyrimidin-5-yl)]Q[Dab]G[dPro(4R-(4-pyridylmethyl))]) (ring closure inferred; not fully specified (N-terminus); printed as cyclic, AEF2PyrimCO-4Pal-Phe4COOH-G-Proc4F-SbMeW4F-Aib-S-W-Aib-PyrimAla-Q-Dab-G-dProc4CH24Pal) [SEQ ID NO 304]
0.018 nM	cyclo([TyrEtNAc][4Pal][Phe(4-COOH)]G[Pro(cis-4-F)][Trp(βS-Me,4-F)][Aib]EW[Aib][Phe(3-Cl)]Q[Dab]G[dPro(4R-(4-pyridylmethyl))]) (ring closure inferred; not fully specified (N-terminus)) [SEQ ID NO 309]
0.016 nM	cyclo([AEFPyrzCO][4Pal][Phe(4-COOH)]G[Pro(cis-4-F)][Trp(βS-Me,4-F)][Aib]SW[Aib][Ala(pyrimidin-5-yl)]Q[Dab]G[dPro(4R-(4-pyridylmethyl))]) (ring closure inferred; not fully specified (N-terminus); printed as cyclic, AEFPyrzCO-4Pal-Phe4COOH-G-Proc4F-SbMeW4F-Aib-S-W-Aib-PyrimAla-Q-Dab-G-dProc4CH24Pal) [SEQ ID NO 303]
0.013 nM	cyclo([AEFBz][4Pal][Phe(4-COOH)]G[Pro(cis-4-F)][Trp(βS-Me,4-F)][Aib]SW[Aib][Ala(pyrimidin-5-yl)]Q[Dab]G[dPro(4R-(4-pyridylmethyl))]) (ring closure inferred; not fully specified (N-terminus); printed as cyclic, AEFBz-4Pal-Phe4COOH-G-Proc4F-SbMeW4F-Aib-S-W-Aib-PyrimAla-Q-Dab-G-dProc4CH24Pal) [SEQ ID NO 308]
0.018 nM	cyclo([AEF4PyrCO][4Pal][Phe(4-COOH)]G[Pro(cis-4-F)][Trp(βS-Me,4-F)][Aib]SW[Aib][Ala(pyrimidin-5-yl)]Q[Dab]G[dPro(4R-(4-pyridylmethyl))]) (ring closure inferred; not fully specified (N-terminus); printed as cyclic, AEF4PyrCO-4Pal-Phe4COOH-G-Proc4F-SbMeW4F-Aib-S-W-Aib-PyrimAla-Q-Dab-G-dProc4CH24Pal) [SEQ ID NO 307]
0.017 nM	cyclo([Phe(4-tBu)][4Pal][Phe(4-COOH)]G[Pro(cis-4-F)][Trp(βS-Me,4-F)][Aib]EW[Aib][Ala(pyrimidin-5-yl)]Q[Dab]G[dPro(4R-(4-pyridylmethyl))]) (ring closure inferred; not fully specified (N-terminus); printed as cyclic, Phe4tButyl-4Pal-Phe4COOH-G-Proc4F-SbMeW4F-Aib-E-W-Aib-PyrimAla-Q-Dab-G-dProc4CH24Pal) [SEQ ID NO 311]
